Measured values published in paper PMC3326303.
Where two headings read alike, the source gives them in different places.

Assays:
Msi1 RBD1 [1] = biological target: T1, Msi1 RBD1 (Mus musculus, UniProt Q61474 20-103); test: NMR HSQC titration
Msi1 RBD1 [2] = biological target: T1, Msi1 RBD1; test: competition
Msi1 RBD1 [3] = biological target: T1, Msi1 RBD1; test: NMR HSQC titration; remark: listed apart in the source
Msi1 RBD2 = Msi1 RBD2 (Mus musculus, UniProt Q61474 109-191); test: NMR HSQC titration
Sequence of Msi1 RBD2 (Q61474 109-191): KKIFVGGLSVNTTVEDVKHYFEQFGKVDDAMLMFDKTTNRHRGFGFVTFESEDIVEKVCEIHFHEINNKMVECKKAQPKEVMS

Msi1 RBD1-2 = Msi1 RBD1-2 (Mus musculus, UniProt Q61474 20-191); test: NMR HSQC titration
Sequence of Msi1 RBD1-2 (Q61474 20-191): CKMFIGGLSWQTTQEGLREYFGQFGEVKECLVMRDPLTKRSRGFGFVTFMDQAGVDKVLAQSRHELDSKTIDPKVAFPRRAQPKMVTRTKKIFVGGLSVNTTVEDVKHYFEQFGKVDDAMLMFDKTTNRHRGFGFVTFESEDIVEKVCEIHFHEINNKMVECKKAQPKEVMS

T1 sequence (Q61474 20-103): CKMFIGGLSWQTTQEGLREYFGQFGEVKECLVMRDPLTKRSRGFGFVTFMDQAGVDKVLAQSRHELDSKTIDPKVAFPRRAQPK

B1: numb5 (ssRNA)
RNA: GUAGU
B1: binds (Msi1 RBD1 [1]).

B2: numb6-4 (ssRNA)
RNA: GUAGUU
B2 was tested, and the binding signal (Msi1 RBD1 [2]) was ~1 ratio of complex signal to numb6-2 complex.

B3: numb6-2 (ssRNA)
RNA: GGUAGU
B3: binds (Msi1 RBD1 [3]); binds (Msi1 RBD2).

B4: numb15 (ssRNA)
RNA: UAGGUAGUAGUUUUA
B4: binds (Msi1 RBD1-2).

B5: numb6-1 (ssRNA)
RNA: UAGGUA
B5: binds (Msi1 RBD2).
